Substitutions are numbered along the chain they refer to.
B1: VH3/VK2 humanized 11C12 antibody (antibody, human IgG1, kappa)
heavy: not shown
light: DIVMTQSPDSLAVSLGERATINCKASQSVDYDGDSYMNWYQQKPGKAPKLLIYGASNLESGIPDRFSGSGSGTDFTLTISRLEPEDAASYYCQQSNEDPFTFGQGTKLEIKRTVAAPSVFIFPPSDEQLKSGTASVVCLLNNFYPREAKVQWKVDNALQSGNSQESVTEQDSKDSTYSLSSTLTLSKADYEKHKVYACEVTHQGLSSPVTKSFNRGEC
notes: Human IgG1/kappa; tested as HEK293 EBNA supernatant; also called H3K2
B2: VH2/VK4 humanized 11C12 antibody (antibody, human IgG1, kappa)
heavy: not shown
light: B1 light with A25S
notes: Human IgG1/kappa; tested as HEK293 EBNA supernatant; also called H2K4
B3: VH6/VK2 humanized 11C12 antibody (antibody, human IgG1, kappa, V domains shown)
VH: EVQLVESGGGLVQPGGSLKLSCAASGFTFSTFGIHWVRQAPGKGLEWVASISGASTTIYYADSVKGRFTISRDNSKNTLYLQMNSLRAEDTAVYYCARYGTSFPYGLDYWGQGTLVTVSS
VL: DIVMTQSPDSLAVSLGERATINCKASQSVDYDGDSYMNWYQQKPGKAPKLLIYGASNLESGIPDRFSGSGSGTDFTLTISRLEPEDAASYYCQQSNEDPFTFGQGTKLEIKR
notes: Human IgG1/kappa; tested as HEK293 EBNA supernatant; also called H6K2
B4: VH1/VK2 humanized 11C12 antibody (antibody, human IgG1, kappa)
heavy: not shown
light: B1 light
notes: Human IgG1/kappa; tested as HEK293 EBNA supernatant; also called H1K2
B5: VH5/VK1 humanized 11C12 antibody (antibody, human IgG1, kappa, V domains shown)
VH: B3 VH with S50Y
VL: B3 VL with D9G, P84E
notes: Human IgG1/kappa; tested as HEK293 EBNA supernatant; also called H5K1
B6: VH2/VK5 humanized 11C12 antibody (antibody, human IgG1, kappa)
heavy: not shown
light: B1 light with A25S, S89V
notes: Human IgG1/kappa; tested as HEK293 EBNA supernatant; also called H2K5
B7: VH4/VK5 humanized 11C12 antibody (antibody, human IgG1, kappa, V domains shown)
VH: B3 VH with S50Y, S63T
VL: B3 VL with A25S, S89V
notes: Human IgG1/kappa; tested as HEK293 EBNA supernatant; also called H4K5
B8: VH2/VK1 humanized 11C12 antibody (antibody, human IgG1, kappa)
heavy: not shown
light: B1 light with D9G, P84E
notes: Human IgG1/kappa; tested as HEK293 EBNA supernatant; also called H2K1
B9: VH6/VK3 humanized 11C12 antibody (antibody, human IgG1, kappa, V domains shown)
VH: B3 VH
VL: B3 VL with S89V
notes: Human IgG1/kappa; tested as HEK293 EBNA supernatant; also called H6K3
B10: VH3/VK5 humanized 11C12 antibody (antibody, human IgG1, kappa)
heavy: not shown
light: B1 light with A25S, S89V
notes: Human IgG1/kappa; tested as HEK293 EBNA supernatant; also called H3K5
B11: VH4/VK2 humanized 11C12 antibody (antibody, human IgG1, kappa, V domains shown)
VH: B3 VH with S50Y, S63T
VL: B3 VL
notes: Human IgG1/kappa; tested as HEK293 EBNA supernatant; also called H4K2
B12: VH3/VK1 humanized 11C12 antibody (antibody, human IgG1, kappa)
heavy: not shown
light: B1 light with D9G, P84E
notes: Human IgG1/kappa; tested as HEK293 EBNA supernatant; also called H3K1
B13: VH1/VK3 humanized 11C12 antibody (antibody, human IgG1, kappa)
heavy: not shown
light: B1 light with S89V
notes: Human IgG1/kappa; tested as HEK293 EBNA supernatant; also called H1K3
B14: VH6/VK5 humanized 11C12 antibody (antibody, human IgG1, kappa, V domains shown)
VH: B3 VH
VL: B3 VL with A25S, S89V
notes: Human IgG1/kappa; tested as HEK293 EBNA supernatant; also called H6K5
B15: VH6/VK1 humanized 11C12 antibody (antibody, human IgG1, kappa, V domains shown)
VH: B3 VH
VL: B3 VL with D9G, P84E
notes: Human IgG1/kappa; tested as HEK293 EBNA supernatant; also called H6K1
B16: VH2/VK3 humanized 11C12 antibody (antibody, human IgG1, kappa)
heavy: not shown
light: B1 light with S89V
notes: Human IgG1/kappa; tested as HEK293 EBNA supernatant; also called H2K3
B17: VH3/VK3 humanized 11C12 antibody (antibody, human IgG1, kappa)
heavy: not shown
light: B1 light with S89V
notes: Human IgG1/kappa; tested as HEK293 EBNA supernatant; also called H3K3
B18: VH1/VK4 humanized 11C12 antibody (antibody, human IgG1, kappa)
heavy: not shown
light: B1 light with A25S
notes: Human IgG1/kappa; tested as HEK293 EBNA supernatant; also called H1K4
B19: VH5/VK5 humanized 11C12 antibody (antibody, human IgG1, kappa, V domains shown)
VH: B3 VH with S50Y
VL: B3 VL with A25S, S89V
notes: Human IgG1/kappa; tested as HEK293 EBNA supernatant; also called H5K5
B20: VH1/VK5 humanized 11C12 antibody (antibody, human IgG1, kappa)
heavy: not shown
light: B1 light with A25S, S89V
notes: Human IgG1/kappa; tested as HEK293 EBNA supernatant; also called H1K5
B21: VH4/VK1 humanized 11C12 antibody (antibody, human IgG1, kappa, V domains shown)
VH: B3 VH with S50Y, S63T
VL: B3 VL with D9G, P84E
notes: Human IgG1/kappa; tested as HEK293 EBNA supernatant; also called H4K1
B22: VH2/VK2 humanized 11C12 antibody (antibody, human IgG1, kappa)
heavy: not shown
light: B1 light
notes: Human IgG1/kappa; tested as HEK293 EBNA supernatant; also called H2K2
B23: VH6/VK4 humanized 11C12 antibody (antibody, human IgG1, kappa, V domains shown)
VH: B3 VH
VL: B3 VL with A25S
notes: Human IgG1/kappa; tested as HEK293 EBNA supernatant; also called H6K4
B24: VH0/VK1 (antibody, human IgG1, kappa, V domains shown)
VH: EVTLKESGGGLVQPGGSRKLSCAASGFTFSTFGIHWVRQAPEKGLEWVAYISGASTTIYYADTVKGRFTISRDNPKNTLFLQMTSLRSEDTAMYYCARYGTSFPYGLDYWGQGTSVTVSS
VL: B3 VL with D9G, P84E
notes: tested as HEK supernatant; also called control antibody (chimeric heavy chain with humanized VK1 light chain)
B25: VH1/VK1 humanized 11C12 antibody (antibody, human IgG1, kappa)
heavy: not shown
light: B1 light with D9G, P84E
notes: Human IgG1/kappa; tested as HEK293 EBNA supernatant; also called H1K1
B26: VH1/VK0 (antibody, human IgG1, kappa, V domains shown)
VH: B24 VH with K5V, E42G, P75S, F80Y, T84N
VL: DIVMTQSPGSLAVSLGQRATISCKASQSVDYDGDSYMNWYQQKPGQPPKLLIYGASNLESGIPARFSGSGSGTDFTLNIHPVEEEDAASYYCQQSNEDPFTFGSGTKLEIKR
notes: tested as HEK supernatant; also called control antibody (humanized VH1 heavy chain with chimeric light chain)

Molecular target: T1, recombinant human EphA5 (rhEphA5) antigen (human, UniProt P54756 25-573)
T1 construct: also called human EphA5 (R and D systems, Cat. No. 3036-A5); recombinant EphA5
T1 sequence (P54756 25-573 limits assumed): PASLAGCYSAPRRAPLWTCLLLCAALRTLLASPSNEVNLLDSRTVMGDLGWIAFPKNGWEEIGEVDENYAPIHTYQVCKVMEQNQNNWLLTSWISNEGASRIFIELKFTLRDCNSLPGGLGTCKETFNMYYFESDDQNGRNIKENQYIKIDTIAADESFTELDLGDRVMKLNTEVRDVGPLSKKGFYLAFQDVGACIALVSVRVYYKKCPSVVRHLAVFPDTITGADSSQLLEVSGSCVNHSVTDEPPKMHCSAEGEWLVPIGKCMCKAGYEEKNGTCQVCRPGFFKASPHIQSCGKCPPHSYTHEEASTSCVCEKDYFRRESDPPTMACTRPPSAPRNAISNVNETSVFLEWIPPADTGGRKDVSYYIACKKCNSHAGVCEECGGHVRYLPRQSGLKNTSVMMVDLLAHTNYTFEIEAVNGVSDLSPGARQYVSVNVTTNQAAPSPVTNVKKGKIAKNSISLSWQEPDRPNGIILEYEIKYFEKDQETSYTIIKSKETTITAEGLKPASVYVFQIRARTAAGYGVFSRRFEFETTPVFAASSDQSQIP
Experiment: SPR single-cycle kinetics (Biacore T200), IgG from HEK supernatant captured on anti-human IgG CM5 chip, rhEphA5 as analyte, 1:1 fit
Parameters: Relative KD: reference not given here
Experimental: Kinetic analysis was carried out on a Biacore T200. Each antibody was captured on a CM5 chip coupled with an anti-human IgG using standard amine chemistry before increasing concentrations of antigen were injected and a single off-rate was determined.
Kinetic experiments were performed at 25° C. on a Biacore T200 running Biacore T200 Control software V2.0.1 and Evaluation software V3.0 (Cytiva, Uppsala, Sweden).
HBS-P+ (Cytiva, Uppsala, Sweden), supplemented with 1% BSA (Sigma, Dorset, UK) was used as running buffer as well as for ligand and analyte dilutions. Supernatants containing IgG were diluted in running buffer to 1 μg/mL. At the start of each cycle, antibodies were loaded onto Fc2, Fc3 and Fc4 of an anti-human IgG CM5 sensor chip (Cytiva, Little Chalfont, UK). Ig were captured at a flow rate of […] to give an immobilization level (RL) of ˜60 RU. The surface was then allowed to stabilize.

| Kd | Relative KD | koff | Binder |
| --- | --- | --- | --- |
| 0.968 nM | 0.73 | 0.0013 s⁻¹ | B1 |
| 0.917 nM | 0.69 | 0.00126 s⁻¹ | B2 |
| 9.49 nM | 7.14 | 0.165 s⁻¹ | B3 |
| 0.968 nM | 0.73 | 0.00126 s⁻¹ | B4 |
| 0.947 nM | 0.71 | 0.00127 s⁻¹ | B5 |
| 1.05 nM | 0.79 | 0.0014 s⁻¹ | B6 |
| 0.996 nM | 0.75 | 0.00137 s⁻¹ | B7 |
| 0.89 nM | 0.67 | 0.0012 s⁻¹ | B8 |
| 6.52 nM | 4.9 | 0.341 s⁻¹ | B9 |
| 1.1 nM | 0.83 | 0.00143 s⁻¹ | B10 |
| 0.854 nM | 0.64 | 0.00114 s⁻¹ | B11 |
| 0.884 nM | 0.66 | 0.00123 s⁻¹ | B12 |
| 0.948 nM | 0.71 | 0.00125 s⁻¹ | B13 |
| 7.1 nM | 5.34 | 0.285 s⁻¹ | B14 |
| 10 nM | 7.52 | 0.165 s⁻¹ | B15 |
| 0.985 nM | 0.74 | 0.00132 s⁻¹ | B16 |
| 1.01 nM | 0.76 | 0.00133 s⁻¹ | B17 |
| 1.1 nM | 0.83 | 0.00137 s⁻¹ | B18 |
| 1.03 nM | 0.77 | 0.0014 s⁻¹ | B19 |
| 1.12 nM | 0.84 | 0.00139 s⁻¹ | B20 |
| 0.975 nM | 0.73 | 0.00129 s⁻¹ | B21 |
| 0.971 nM | 0.73 | 0.00126 s⁻¹ | B22 |
| 9.76 nM | 7.34 | 0.209 s⁻¹ | B23 |
| 1.12 nM | 0.84 | 0.00137 s⁻¹ | B24 |
| 1.02 nM | 0.77 | 0.00128 s⁻¹ | B25 |
| 1.04 nM | 0.78 | 0.00127 s⁻¹ | B26 |

— patent US20240115722A1 (RUTGERS THE STATE UNIVERSITY OF NEW JERSEY, published 2024)
